System: MS2 coat protein
Assay: apparent KD of MS2 coat protein; designed switch direction (-1 OFF switch, 1 ON switch): -1; higher = weaker reporter binding
Method in brief: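 The reported apparent KD is a per-design median over clusters, from curve fits of normalised cluster fluorescence. Protein titrations used SNAP-549-labelled MS2 coat protein, doubled from 0.7 or 1.5 nM to 3 µM, in Tris-HCl pH 7.5 buffer with KCl, MgCl2, BSA, DTT, tRNA and Tween-20, with no input, 200 uM small-molecule ligand, or an oligonucleotide input. The RNA switches were transcribed on Illumina chips by stalled E. coli RNA polymerase.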

[1] = Eterna round: R95, input ligand: microRNA oligo, concentration not stated
[2] = input ligand: microRNA oligo, concentration not stated
[3] = Eterna round: R95, input ligand: FMN 200 uM
[4] = Eterna round: R95, input ligand: none

Sequence | apparent KD of MS2 coat protein (input ligand: FMN 200 uM) | apparent KD of MS2 coat protein (input ligand: none) | apparent KD of MS2 coat protein [1] | apparent KD of MS2 coat protein [2] | apparent KD of MS2 coat protein [3] | apparent KD of MS2 coat protein [4]
UGCGAGUAAGGAUAUUCGCGACCGCCCACAAGGGCAGUCGAGAAGAAGGUACUUGAGGAUCACCCAAGUCCUAA [Quondius] (Eterna round: R97, puzzle: Exclusion 4) | 89.8 nM | 20.8 nM |  |  |  | 
AGCAUGGUAGGAUAUACGGAACAUUAGGGUUUGUUGUGUGGACAUGAGGAUCACCCAUGUAGAAGGGCCGUGCA [Mat - Exclusion 2 - Mod of JL - D81] (puzzle: Exclusion 2) |  |  | 33.7 nM |  |  | 
CCCAGUUAGGAAGGAUAUUGUACAUGAGGAUCACCCAUGUAAUAAAUGAGGAUCUCGGGUGUCUACAAGAAGGUCCGGAUAGGC [Ostracism 12 - Jieux - Exclusion NG 2] (Eterna round: R96, puzzle: Exclusion NG 2) | 104 nM | 46.4 nM |  | 38.7 nM |  | 
AAGAAACAUGAGGAUCACCCAUGUGAGGAUAUGAGGAAGAAAAGAAAAGAAAGAAGACUCAGAAGGCACAAAGG [salish99-ex1_r3_073] (puzzle: Exclusion 1) |  |  | 49 nM |  | 189 nM | 76.8 nM
CUUUUGUGAGGAUAUCAGUAGUAAAUAAAUAAAAUUAAUACUGAGAAGGCACAUGAGGAUCACCCAUGUUCCUC [Mat - Exclusion 4 - Mod of Salish - D63] (puzzle: Exclusion 4) |  |  | 33 nM |  |  | 
CACGUGUCAGGAUAUCCCGCGCGCGCUUCACCGAGAGUGCGGGAGAAGGGACAUGAGGAUCACCCAUGUCCUUC [Eternabot (L1) Solution 93] (Eterna round: R97, puzzle: Exclusion 4) | 12.8 nM | 16.2 nM |  |  |  | 
CUUUUGUGAGGAUAUUAGUAGUAAAAAAAUAAAAUUACUACUGAGAAGGCACAUGAGGAUCACCCAUGUUUCUC [salish99_ex4_r3_037] (puzzle: Exclusion 4) |  |  | 29.2 nM |  |  | 
UUUAAUUUUUUUUUUUUACAAGCUUUUUGCUCGUCUUAUACAUGAGGAUCACCCAUGUGGGUGAAAGGUAAAUUAUC [JMF 64] (puzzle: Sensor v3, turn-off variant 2) |  |  | 21 nM |  | 46.8 nM | 54.2 nM
UAUUAGCAAGCAAGAUCCCACAUGAGGAUCACCCAUGUGCUCGUCUUAUAAGGUACUGUGACGAUAGUCACGGUACC [Mat - Sensor, turn-off var - Eli Mod - D46] (Eterna round: R97, puzzle: Sensor, turn-off variant 1) | 60.5 nM | 54.1 nM |  |  |  | 
AGUUGGCGAGGAUAUACAUGAGGAUCACCCAUGUGAAAUAGAAUAGUGAGGAAGAAAAGUAGAAGGCGCUGACA [Mat - Exclusion 3 - Mod of Salish D41] (puzzle: Exclusion 3) |  |  | 49.7 nM |  |  | 
CACAUGAGACGGAGAUCCAACAUGAGGAUCACCCAUGUCUCAAAAGCUUUUUGCUUGUCUUAUCCUCCUCUCGUGAC [Mat - Sensor, turn-off var - Eli Mod - D61] (Eterna round: R97, puzzle: Sensor, turn-off variant 1) | 47.8 nM | 46.7 nM |  |  |  | 
UAUUAGCAAGCAACUGGGUACAUGAGGAUCACCCAUGUGCUCGUCUUAUAAGGUACUGUGACGAAAUUCACGGUACC [mod--Eli13] (Eterna round: R97, puzzle: Sensor, turn-off variant 1) | 21.1 nM | 18.6 nM |  |  |  | 
CCAGUACGAGGAUAUACAUGAGGAUCACCCAUGUAAAUUGCCACGUCUUGGACGUCAUGUAGAAGGCGUUGGAA [EX3 C.1] (Eterna round: R97, puzzle: Exclusion 3) | 15.2 nM | 14.3 nM |  |  |  | 
CAUGGAUGUGAGCCGCAUUACAUGAGGAUCACCCAUGUCAACAAGCUUUUUGCUUGUCUUACGCGGCGGCAUCUAAA [Abebies] (puzzle: Sensor v3, turn-off variant 1) |  |  | 8.44 nM |  | 11.3 nM | 10.3 nM
AAGAAACAUGAGGAUCACCCAUGUGAGGAUAUGAUUAAGAAAAGAAAAGAAAGAAGAUUCAGAAGGCACAAAGG [salish99-ex1_r3_054] (puzzle: Exclusion 1) |  |  | 72.5 nM |  | 91.4 nM | 82.9 nM
UCUUACUGAGGAUAUACUUAGAUUUACAUGAGGAUCACCCAUGUUCCUCUAUGUAUAUAUGUAGAAGGCAGAAGAU [Mat - Exclusion 5 - JL Mod - D47] (Eterna round: R97, puzzle: Exclusion 5) | 292 nM | 35.6 nM |  |  |  | 
AAAACUCGAGUUAGGAUAUUGAGUGCUAAAAUCACCAAGAAGGAACAUGAGGAUCACCCAUGUAACGAAGGUGA [BmEX4 A.10] (Eterna round: R97, puzzle: Brourd's mod of Exclusion 4) | 19.8 nM | 16 nM |  |  |  | 
ACCAUGUCAGGAUAUGCCCGUGUUCGAUCCGAGAAACACGAGCAGAAGGGACAUGAGGAUCACCCAUGUCCAAG [Eternabot (Original) Solution 1] (Eterna round: R97, puzzle: Exclusion 4) | 45.2 nM | 16.2 nM |  |  |  | 
CACAAAACUGUCAGGAUAUCAGAUGCCGACCCAUAUGAGAAGGGACAUGAGGAUCACCCAUGUACUGGUUCUCA [BmEX4 B.6] (Eterna round: R97, puzzle: Brourd's mod of Exclusion 4) | 13.9 nM | 19.8 nM |  |  |  | 
AGUACUAACACGAAAGUGUUAGUACAAUAAGCUUGUGAAACAUGAGGAUCACCCAUGUCCUCAUAAGCUCGUCUUAU [salish99_TOv2_r3_001again] (puzzle: Sensor v3, turn-off variant 2) |  |  | 648 nM |  | 16.7 nM | 15.9 nM
CCUCUACAUGAGGAUCACCCAUGUGAGGAUAUGCGAGGCGCACUCGAUGAGCGCGCCGGUAGAAGGCAUGUGGU [Raraveries] (Eterna round: R96, puzzle: Exclusion 1) | 67 nM | 41.9 nM |  | 29.8 nM |  | 
ACAUGAGGAUCACCCAUGUGACCACAAUGGCUGAUGUAAAGACAGGAUAUGUGUGAAUAUCUAACACAGAAGGGUCUUGACUGG [Deportation 57 - Jieux - Exclusion NG 3] (Eterna round: R96, puzzle: Exclusion NG 3) | 53 nM | 47.8 nM |  | 47.1 nM |  | 
UGGGUUCCAAGUGAGUCAGACAUGAGGAUCACCCAUGUAUAGCAAGCCUUAGCCGUUCGAGCAAAUGGUCUCGUCAG [Eternabot (Original) Solution 36] (Eterna round: R97, puzzle: Sensor, turn-off variant 1) | 384 nM | 1040 nM |  |  |  | 
CCGCGUACAGGAUAUCCAUCUGGAUCAGACAAGAUCCUGAUGGAGAAGGGACAUGAGGAUCACCCAUGUUGCGG [Mat - Exclusion 4 - Eli Mod - D54] (Eterna round: R97, puzzle: Exclusion 4) | 19 nM | 19.3 nM |  |  |  | 
GUGUACGGAGGAUAUAUAUGGGCAGCAUACGCUGCAGCUUCACAUGAGGAUCACCCAUGUAGAAGGCUGUGCAC [JL-ex2-2.10 Brourd mod] (puzzle: Exclusion 2) |  |  | 19.9 nM |  |  | 
